Experimental data taken from article doi:10.1101/2021.10.07.463402.

Target: SARS-CoV-2 spike glycoprotein (S), wild type (SARS-CoV-2 strain Wuhan-Hu-1)
Experiment: native gel or EMSA

SARS-CoV-2 spike glycoprotein (S), wild type (natural protein)
stoichiometry N: 3
